We go through 18 molecules from patent US20250215083A1 (JIANGSU HENGRUI PHARMACEUTICALS, published 2025).

One assay concerns the target human GPRC5D (human, UniProt Q9NZD1 1-345). As to the kind of experiment: cell-based or functional assay.
A further assay concerns the target T1, hPDL1 (human, UniProt Q9NZQ7 19-238).
T1 construct: purchased from Sino biology
As to the kind of experiment: ELISA per WO2021139758 Test Example 4.

Another assay has as its target T2, hCTLA4 (human, UniProt P16410 36-161).
T2 construct: purchased from Sino biology
As to the kind of experiment: ELISA per WO2021139758 Test Example 4.

Chain of human GPRC5D (Q9NZD1 whole entry): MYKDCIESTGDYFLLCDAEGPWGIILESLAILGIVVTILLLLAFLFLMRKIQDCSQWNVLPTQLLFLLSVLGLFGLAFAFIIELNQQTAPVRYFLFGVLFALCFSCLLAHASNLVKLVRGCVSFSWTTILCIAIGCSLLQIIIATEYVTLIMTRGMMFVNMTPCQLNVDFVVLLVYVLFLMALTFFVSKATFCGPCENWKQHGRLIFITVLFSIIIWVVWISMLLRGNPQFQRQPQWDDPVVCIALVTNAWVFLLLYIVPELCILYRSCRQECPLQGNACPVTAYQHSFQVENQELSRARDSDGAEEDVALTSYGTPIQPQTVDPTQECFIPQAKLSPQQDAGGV
T2 sequence (P16410 36-161 limits assumed): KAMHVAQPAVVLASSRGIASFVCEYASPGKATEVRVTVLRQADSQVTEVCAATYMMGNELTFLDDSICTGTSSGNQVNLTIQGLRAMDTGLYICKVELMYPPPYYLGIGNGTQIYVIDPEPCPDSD
T1 sequence (Q9NZQ7 19-238 limits assumed): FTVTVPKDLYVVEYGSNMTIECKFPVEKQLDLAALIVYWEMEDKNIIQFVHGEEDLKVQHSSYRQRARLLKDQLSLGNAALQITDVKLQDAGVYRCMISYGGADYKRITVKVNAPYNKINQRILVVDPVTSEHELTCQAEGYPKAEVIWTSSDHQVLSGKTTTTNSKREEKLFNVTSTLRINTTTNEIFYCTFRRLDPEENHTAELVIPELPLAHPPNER

B1: F2-3 (bispecific antibody)
heavy 1: not shown
light 1: DIQMTQSPSSVSASVGDRVTITCKASQNVGSNVAWYQQKPGKAPKALIYSASYRYSGVPSRFSGSGSGTDFTLTISSLQPEDFATYYCHQYNSYPPTFGQGTKLEIKRTVAAPSVFIFPPSDEQLKSGTASVVCLLNNFYPREAKVQWKVDNALQSGNSQESVTEQDSKDSTYSLSSTLTLSKADYEKHKVYACEVTHQGLSSPVTKSFNRGEC
heavy 2: not shown
light 2: not shown
As to B1, in the assay with human GPRC5D, the “EC50 ratio (relative to JNJ-64407564), cytotoxic activity against NCI-H929” value was 0.08 and the “Lysis rate %, cytotoxic activity against NCI-H929” value was 61.5%.

B2: F2-2 (bispecific antibody)
heavy 1: not shown
light 1: DVVLTQSPLSLPVTLGQPASISCKSSQSLLHSSGKTYLNWLLQRPGQSPRRLIYLVSKLDSGVPDRFSGSGSGTDFTLKISRVEAEDVGVYYCAQGTHFPRTFGGGTKVEIKRTVAAPSVFIFPPSDEQLKSGTASVVCLLNNFYPREAKVQWKVDNALQSGNSQESVTEQDSKDSTYSLSSTLTLSKADYEKHKVYACEVTHQGLSSPVTKSFNRGEC
heavy 2: not shown
light 2: not shown
As for B2, in the assay with human GPRC5D, the “EC50 ratio (relative to JNJ-64407564), cytotoxic activity against NCI-H929” value amounted to 0.26 and the “Lysis rate %, cytotoxic activity against NCI-H929” value is 64.3%.

B3: PL-3 (bispecific antibody)
chain 1: not shown
chain 2: DIVLTQSPASLAVSPGQRATITCRASESVSIHGTHLMHWYQQKPGQPPKLLIYAASKLESGVPARFSGSGSGTDFTLTINPVEAEDTANYYCQQSFEDPLTFGQGTKLEIKGGGGSGIPPKIECLPIDISIDEGKCLTVASAFTGEPTPEVTWSTGGRKIHSQEQGRFHIENTDDSTTLTIKDVQKQDGGLYTLTLRNEFGSDSATVNIHIRSI
chain 3: not shown
chain 4: not shown
Usually EC50 stands for the concentration that produces a half-maximal response. A lower EC50 goes with an effect from little substance. Turning to B3, the EC50 turned out to be 0.6 nM in the assay with hPDL1 and 7.9 nM with hCTLA4.

B4: PL-7 (bispecific antibody)
chain 1: not shown
chain 2: DIVLTQSPASLAVSPGQRATITCRASESVSIHGTHLMHWYQQKPGQPPKLLIYAASKLESGVPARFSGSGSGTDFTLTINPVEAEDTANYYCQQSFEDPLTFGQGTKLEIKGGGGSGIPPKIECLPIDISIDEGKVLTVASCFTGEPTPEVTWSTGGRKIHSQEQGRFHIENTDDSTTLTIKDVQKQDGGLYTLTLRNEFGSDSATVNIHIRSI
chain 3: not shown
chain 4: not shown
Consider B4, for which the values for the EC50 with hPDL1 and with hCTLA4 were 0.5 nM and 7.3 nM, respectively.

B5: PL-15 (bispecific antibody)
chain 1: not shown
chain 2: DIVLTQSPASLAVSPGQRATITCRASESVSIHGTHLMHWYQQKPGQPPKLLIYAASKLESGVPARFSGSGSGTDFTLTINPVEAEDTANYYCQQSFEDPLTFGQGTKLEIKRTVASGIPPKIECLPIDISIDEGKCLTVASAFTGEPTPEVTWSTGGRKIHSQEQGRFHIENTDDSTTLTIKDVQKQDGGLYTLTLRNEFGSDSATVNIHIRSI
chain 3: not shown
chain 4: not shown
On to B5, for which the concentration for a half-maximal effect (EC50) with hPDL1 is 1.4 nM; in the assay with hCTLA4, 3.2 nM.

B6: PL-4 (bispecific antibody)
chain 1: not shown
chain 2: DIVLTQSPASLAVSPGQRATITCRASESVSIHGTHLMHWYQQKPGQPPKLLIYAASKLESGVPARFSGSGSGTDFTLTINPVEAEDTANYYCQQSFEDPLTFGQGTKLEIKGGGGSGIPPKIECLPIDISIDEGKVLTVASCFTGEPTPEVTWSTGGRKIHSQEQGRFHIENTDDSTTLTIKDVQKQDGGLYTLTLRNEFGSDSATVNIHIRSI
chain 3: not shown
chain 4: not shown
In the case of B6, the EC50 came out at 0.7 nM with hPDL1 and 6.5 nM with hCTLA4.

B7: PL-13 (bispecific antibody)
chain 1: not shown
chain 2: DIVLTQSPASLAVSPGQRATITCRASESVSIHGTHLMHWYQQKPGQPPKLLIYAASKLESGVPARFSGSGSGTDFTLTINPVEAEDTANYYCQQSFEDPLTFGQGTKLEIKRTVASGIPPKIECLPIDISIDEGKVLTVASCFTGEPTPEVTWSTGGRKIHSQEQGRFHIENTDDSTTLTIKDVQKQDGGLYTLTLRNEFGSDSATVNIHIRSI
chain 3: not shown
chain 4: not shown
Take B7: the EC50 with hPDL1 is 0.5 nM; in the assay with hCTLA4, 4.4 nM.

B8: PL-12 (bispecific antibody)
chain 1: not shown
chain 2: DIVLTQSPASLAVSPGQRATITCRASESVSIHGTHLMHWYQQKPGQPPKLLIYAASKLESGVPARFSGSGSGTDFTLTINPVEAEDTANYYCQQSFEDPLTFGQGTKLEIKRTVASGIPPKIECLPIDISIDEGKCLTVASAFTGEPTPEVTWSTGGRKIHSQEQGRFHIENTDDSTTLTIKDVQKQDGGLYTLTLRNEFGSDSATVNIHIRSI
chain 3: not shown
chain 4: not shown
As for B8, the EC50 amounted to 0.5 nM in the assay with hPDL1 and 8 nM in the assay with hCTLA4.

B9: PL-14 (bispecific antibody)
chain 1: not shown
chain 2: DIVLTQSPASLAVSPGQRATITCRASESVSIHGTHLMHWYQQKPGQPPKLLIYAASKLESGVPARFSGSGSGTDFTLTINPVEAEDTANYYCQQSFEDPLTFGQGTKLEIKRTVASGIPPKIECLPIDISIDEGKVLTVASAFTGEPTPEVTWSTGGRKIHSQEQGRFHIENTDDSTTLTIKDVQKQDGGLYTLTLRNEFGSDSATVNIHIRSI
chain 3: not shown
chain 4: not shown
B9: the EC50 with hPDL1 is 1.3 nM; in the assay with hCTLA4, 6 nM.

B10: PL-11 (bispecific antibody)
chain 1: not shown
chain 2: DIVLTQSPASLAVSPGQRATITCRASESVSIHGTHLMHWYQQKPGQPPKLLIYAASKLESGVPARFSGSGSGTDFTLTINPVEAEDTANYYCQQSFEDPLTFGQGTKLEIKRTVASGIPPKIECLPIDISIDEGKVLTVASAFTGEPTPEVTWSTGGRKIHSQEQGRFHIENTDDSTTLTIKDVQKQDGGLYTLTLRNEFGSDSATVNIHIRSI
chain 3: not shown
chain 4: not shown
In the case of B10, the EC50 in the assay with hPDL1 stood at 0.6 nM; with hCTLA4, 5.6 nM.

B11: PL-5 (bispecific antibody)
chain 1: not shown
chain 2: DIVLTQSPASLAVSPGQRATITCRASESVSIHGTHLMHWYQQKPGQPPKLLIYAASKLESGVPARFSGSGSGTDFTLTINPVEAEDTANYYCQQSFEDPLTFGQGTKLEIKGGGGSGIPPKIECLPIDISIDEGKVLTVASAFTGEPTPEVTWSTGGRKIHSQEQGRFHIENTDDSTTLTIKDVQKQDGGLYTLTLRNEFGSDSATVNIHIRSI
chain 3: not shown
chain 4: not shown
Regarding B11, the figures for the EC50 in the assay with hPDL1 and in the assay with hCTLA4 were 0.7 nM and 6.7 nM, respectively.

B12: PL-8 (bispecific antibody)
chain 1: not shown
chain 2: DIVLTQSPASLAVSPGQRATITCRASESVSIHGTHLMHWYQQKPGQPPKLLIYAASKLESGVPARFSGSGSGTDFTLTINPVEAEDTANYYCQQSFEDPLTFGQGTKLEIKGGGGSGIPPKIECLPIDISIDEGKVLTVASAFTGEPTPEVTWSTGGRKIHSQEQGRFHIENTDDSTTLTIKDVQKQDGGLYTLTLRNEFGSDSATVNIHIRSI
chain 3: not shown
chain 4: not shown
On to B12, for which the EC50 with hPDL1 amounted to 1.4 nM; in the assay with hCTLA4, 14.5 nM.

B13: PL-19 (bispecific antibody)
chain 1: not shown
chain 2: DIVLTQSPASLAVSPGQRATITCRASESVSIHGTHLMHWYQQKPGQPPKLLIYAASKLESGVPARFSGSGSGTDFTLTINPVEAEDTANYYCQQSFEDPLTFGQGTKLEIKRTVASGIPPKIECLPIDISIDEGKVLTVASCFTGEPTPEVTWSTGGRKIHSQEQGRFHIENTDDSTTLTIKDVQKQDGGLYTLTLRNEFGSDSATVNIHIRSI
chain 3: not shown
chain 4: not shown
In the case of B13, the EC50 in the assay with hPDL1 was determined as 1.6 nM; with hCTLA4, 6.5 nM.

B14: PL-18 (bispecific antibody)
chain 1: not shown
chain 2: DIVLTQSPASLAVSPGQRATITCRASESVSIHGTHLMHWYQQKPGQPPKLLIYAASKLESGVPARFSGSGSGTDFTLTINPVEAEDTANYYCQQSFEDPLTFGQGTKLEIKRTVASGIPPKIECLPIDISIDEGKCLTVASAFTGEPTPEVTWSTGGRKIHSQEQGRFHIENTDDSTTLTIKDVQKQDGGLYTLTLRNEFGSDSATVNIHIRSI
chain 3: not shown
chain 4: not shown
Take B14: the EC50 in the assay with hPDL1 came to 1.6 nM; with hCTLA4 it was 6.7 nM.

B15: PL-10 (bispecific antibody)
chain 1: not shown
chain 2: DIVLTQSPASLAVSPGQRATITCRASESVSIHGTHLMHWYQQKPGQPPKLLIYAASKLESGVPARFSGSGSGTDFTLTINPVEAEDTANYYCQQSFEDPLTFGQGTKLEIKGGGGSGIPPKIECLPIDISIDEGKVLTVASCFTGEPTPEVTWSTGGRKIHSQEQGRFHIENTDDSTTLTIKDVQKQDGGLYTLTLRNEFGSDSATVNIHIRSI
chain 3: not shown
chain 4: not shown
B15: the EC50 with hPDL1 was 0.6 nM; with hCTLA4, 6.9 nM.

B16: PL-9 (bispecific antibody)
chain 1: not shown
chain 2: DIVLTQSPASLAVSPGQRATITCRASESVSIHGTHLMHWYQQKPGQPPKLLIYAASKLESGVPARFSGSGSGTDFTLTINPVEAEDTANYYCQQSFEDPLTFGQGTKLEIKGGGGSGIPPKIECLPIDISIDEGKCLTVASAFTGEPTPEVTWSTGGRKIHSQEQGRFHIENTDDSTTLTIKDVQKQDGGLYTLTLRNEFGSDSATVNIHIRSI
chain 3: not shown
chain 4: not shown
Consider B16, for which the values for the EC50 in the assay with hPDL1 and with hCTLA4 were 0.6 nM and 5.5 nM, respectively.

B17: PL-17 (bispecific antibody)
chain 1: not shown
chain 2: DIVLTQSPASLAVSPGQRATITCRASESVSIHGTHLMHWYQQKPGQPPKLLIYAASKLESGVPARFSGSGSGTDFTLTINPVEAEDTANYYCQQSFEDPLTFGQGTKLEIKRTVASGIPPKIECLPIDISIDEGKVLTVASAFTGEPTPEVTWSTGGRKIHSQEQGRFHIENTDDSTTLTIKDVQKQDGGLYTLTLRNEFGSDSATVNIHIRSI
chain 3: not shown
chain 4: not shown
Regarding B17, the EC50 with hPDL1 came to 1.4 nM; with hCTLA4, 6.2 nM.

B18: PL-6 (bispecific antibody)
chain 1: not shown
chain 2: DIVLTQSPASLAVSPGQRATITCRASESVSIHGTHLMHWYQQKPGQPPKLLIYAASKLESGVPARFSGSGSGTDFTLTINPVEAEDTANYYCQQSFEDPLTFGQGTKLEIKGGGGSGIPPKIECLPIDISIDEGKCLTVASAFTGEPTPEVTWSTGGRKIHSQEQGRFHIENTDDSTTLTIKDVQKQDGGLYTLTLRNEFGSDSATVNIHIRSI
chain 3: not shown
chain 4: not shown
On to B18, for which the values for the EC50 with hPDL1 and with hCTLA4 were 0.8 nM and 5.3 nM, respectively.
